Data as given in patent US20190077876A1 (AbbVie / Abbott, published 2019).
Residue numbers refer to the chain shown, from its start.

T1: human CLDN6 protein (human, UniProt P56747 1-220)
T1 sequence (looked up): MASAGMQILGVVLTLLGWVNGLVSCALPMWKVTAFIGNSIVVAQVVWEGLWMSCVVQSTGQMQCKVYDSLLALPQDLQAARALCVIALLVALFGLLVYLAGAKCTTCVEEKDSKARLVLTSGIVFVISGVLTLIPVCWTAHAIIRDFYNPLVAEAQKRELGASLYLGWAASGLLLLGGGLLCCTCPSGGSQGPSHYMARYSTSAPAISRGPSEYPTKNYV

T2: human CLDN4 protein (human, UniProt O14493 1-209)
T2 sequence (looked up): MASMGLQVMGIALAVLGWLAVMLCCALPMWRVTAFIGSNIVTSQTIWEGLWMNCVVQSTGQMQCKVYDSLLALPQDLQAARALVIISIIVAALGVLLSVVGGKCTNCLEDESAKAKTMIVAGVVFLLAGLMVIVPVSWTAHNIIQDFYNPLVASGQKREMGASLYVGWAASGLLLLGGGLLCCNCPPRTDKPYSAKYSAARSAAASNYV

T3: human CLDN9 protein (human, UniProt O95484 1-217)
T3 sequence (looked up): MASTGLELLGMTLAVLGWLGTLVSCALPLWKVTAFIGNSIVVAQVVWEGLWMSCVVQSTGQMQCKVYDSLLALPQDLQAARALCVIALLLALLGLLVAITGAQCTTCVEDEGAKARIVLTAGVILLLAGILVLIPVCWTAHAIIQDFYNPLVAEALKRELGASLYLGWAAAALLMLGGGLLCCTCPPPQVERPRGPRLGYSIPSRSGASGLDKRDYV

B1: SC27.201 mouse monoclonal anti-CLDN antibody (antibody, V domains shown)
VL: DIQMTQSSSSFSVSLGDRVTITCKASEDIYNRLAWYQQKPGNAPRLLISGATSLEAGVPSGFSGSGSGKDYTLSITSLQTEDVATYYCQQYWSTPPTFGGGTKLELK
V domain: EVQLQQSGPELVKPGASVKISCKTSGYTFTENIRHWVKQSRGKSLEWIGTINPNNGETRYNQKFKGKATLTVDKSSSTAYMELRSLTSEDSAVYYCTRGITKSPYGMDYWGQGTSITVSS
B2: SC27.104 mouse monoclonal anti-CLDN antibody (antibody, V domains shown)
VH: EVQLQQSGPELVKPGASVKISCKTSGYTFTEYTVHWVKQSHGKSLEWIGGVYPKNGDTTYNQKFRGKATLTVDKSSNTAYMELRSLTSEDSAVYYCTGKDGYDGFAYWGQGTLVTVSA
VL: B1 VL with A56T, G61R, T94N, L106I
B3: SC27.204 mouse monoclonal anti-CLDN antibody (antibody, V domains shown)
VH: EVKVLESGGGLVQPGGSLKLSCAASGFDFSRYWMSWVRQAPGKGLEWIGEINPDSSTINYTPSLKAKFIISRDNAKNTLYLQMSKVRSEDTALYYCTGPAYWGQGTLVTVSA
VL: DIVMTQSQKFMSTSVGDRVSVACKAGQNVGTSVAWYQQKPGHSPKSLIYSASYRYSGVPNRFTGSGSGTDFTLTISNVQSEDLADYFCQQYITYPYTFGGGTKLEII
B4: SC27.105 mouse monoclonal anti-CLDN antibody (antibody, V domains shown)
VH: EVQLQQSGPELVKPGASVKISCKASGYSFTGYYMNWVKQSPEKSLEWIGEINPSTGSTTYNQKFKAKATLTVDKSSSTAYMQLKSLTSEDSAVYYCARRDYYYGSGFYAMDYWGQGTSVTVSS
VL: DVQMTQSPSSLSASLGERVSLTCQASQSVSNNLNWYQQTPGKAPRLLIYGASKLEDGVSSRFSGTGYGTDFTFTISSLEEEDVATYFCLQHRYLWTFGGGTKLEIK
B5: SC27.106 (antibody, V domains shown)
VH: EVQLQQSGPELVKPGASVKISCKTSGYTFTEYTMHWVKQSHGKSLEWIGGINPNNGGTNYNQKFKGKATLTVDKSSSTAYMELRSLTSEDSAVYYCARRLITYYAMDYWGQGTSVTVSS
VL: B1 VL with S49C, A56T, G61R, P96L, G100A
notes: also called SC27.106 mouse monoclonal anti-CLDN antibody
B6: SC27.203 (antibody, V domains shown)
VH: B1 V domain with R34I, R41H, T50G, N54I, E57G, R59S, T97A, K102T, G106A, I116V
VL: B1 VL with K39N, A43T, I48M, A56T, G61R, T80I, A84S, K103R, L106I
notes: also called SC27.203 mouse monoclonal anti-CLDN antibody

Target: T1, human CLDN6 protein
Assay: cell-based or functional assay

| Binder | apparent IC50 of killing of HEK-293T cells overexpressing hCLDN6; antibody titrated 0.15 to 1000 nM with anti-mouse IgG Fab-saporin, CellTiter-Glo |
| --- | --- |
| B1 | 48.2 nM |
| B2 | 284 nM |
| B3 | 25.2 nM |
| B4 | 235 nM |

Target: T2, human CLDN4 protein
Assay: cell-based or functional assay

| Binder | apparent IC50 of killing of HEK-293T cells overexpressing hCLDN4; antibody titrated 0.15 to 1000 nM with anti-mouse IgG Fab-saporin, CellTiter-Glo |
| --- | --- |
| B1 | 69.7 nM |
| B2 | 969 nM |

Target: T3, human CLDN9 protein
Assay: cell-based or functional assay

| Binder | apparent IC50 of killing of HEK-293T cells overexpressing hCLDN9; antibody titrated 0.15 to 1000 nM with anti-mouse IgG Fab-saporin, CellTiter-Glo |
| --- | --- |
| B1 | 155 nM |
| B3 | 16.9 nM |

Target: T2, human CLDN4 protein
Assay: flow cytometry on cells overexpressing human CLDN4; Alexa 647 anti-mouse secondary; single point

| binding result | Binder |
| --- | --- |
| no binding (tested: 10 µg/mL) | B3 |
| no binding (tested: 10 µg/mL) | B4 |

Target: T3, human CLDN9 protein
Assay: flow cytometry on cells overexpressing human CLDN9; Alexa 647 anti-mouse secondary; single point

| binding result | Binder |
| --- | --- |
| no binding (tested: 10 µg/mL) | B4 |

Target: T2, human CLDN4 protein
Assay: flow cytometry on cells overexpressing human CLDN4; 10 µg/mL purified antibody, Alexa 647 anti-mouse secondary; single point

| MFI | Binder |
| --- | --- |
| 23100 | B1 |
| 1990 | B5 |
| 2980 | B6 |
| 22600 | B2 |
| 79 | B3 |
| 69 | B4 |

Target: T1, human CLDN6 protein
Assay: flow cytometry on cells overexpressing human CLDN6; 10 µg/mL purified antibody, Alexa 647 anti-mouse secondary; single point

| MFI | Binder |
| --- | --- |
| 29900 | B1 |
| 55800 | B5 |
| 47400 | B6 |
| 39200 | B2 |
| 106000 | B3 |
| 83000 | B4 |

Target: T3, human CLDN9 protein
Assay: flow cytometry on cells overexpressing human CLDN9; 10 µg/mL purified antibody, Alexa 647 anti-mouse secondary; single point

| MFI | Binder |
| --- | --- |
| 7100 | B1 |
| 595 | B5 |
| 587 | B6 |
| 7230 | B2 |
| 23000 | B3 |
| 80 | B4 |
